Data as given in the supplement of paper PMC10065799, “High-throughput profiling of sequence recognition by tyrosine kinases and SH2 domains using bacterial peptide display” (eLife, 2023).

Columns and labels:
MERTK = MERTK (UniProt Q12866); assay: phosphorylation enrichment, bacterial display (enrichment ratio); higher = better substrate or ligand; peptides without Tyr show the background
Fer (mouse) = assay: as above
Jak2 = Jak2 (UniProt O60674); assay: as above
Fyn = Fyn (UniProt P06241); assay: as above
Chain of Fyn (P06241 whole entry, looked up): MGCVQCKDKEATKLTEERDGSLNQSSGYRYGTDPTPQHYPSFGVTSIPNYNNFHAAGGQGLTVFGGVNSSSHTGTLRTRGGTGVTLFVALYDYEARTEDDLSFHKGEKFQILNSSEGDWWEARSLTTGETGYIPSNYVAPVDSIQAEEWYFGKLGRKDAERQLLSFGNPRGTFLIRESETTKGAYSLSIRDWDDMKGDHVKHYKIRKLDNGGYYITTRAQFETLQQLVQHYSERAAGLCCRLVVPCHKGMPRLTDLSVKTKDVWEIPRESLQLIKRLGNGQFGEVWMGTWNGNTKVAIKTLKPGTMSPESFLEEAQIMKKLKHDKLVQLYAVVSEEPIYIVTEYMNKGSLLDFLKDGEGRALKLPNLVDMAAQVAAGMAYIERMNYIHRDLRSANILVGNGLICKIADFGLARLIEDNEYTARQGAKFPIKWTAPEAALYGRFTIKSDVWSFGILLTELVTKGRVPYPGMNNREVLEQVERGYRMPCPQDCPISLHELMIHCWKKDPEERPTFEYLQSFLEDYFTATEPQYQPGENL

FGFR3 = FGFR3 (UniProt P22607); assay: as above
Chain of FGFR3 (P22607 whole entry, looked up): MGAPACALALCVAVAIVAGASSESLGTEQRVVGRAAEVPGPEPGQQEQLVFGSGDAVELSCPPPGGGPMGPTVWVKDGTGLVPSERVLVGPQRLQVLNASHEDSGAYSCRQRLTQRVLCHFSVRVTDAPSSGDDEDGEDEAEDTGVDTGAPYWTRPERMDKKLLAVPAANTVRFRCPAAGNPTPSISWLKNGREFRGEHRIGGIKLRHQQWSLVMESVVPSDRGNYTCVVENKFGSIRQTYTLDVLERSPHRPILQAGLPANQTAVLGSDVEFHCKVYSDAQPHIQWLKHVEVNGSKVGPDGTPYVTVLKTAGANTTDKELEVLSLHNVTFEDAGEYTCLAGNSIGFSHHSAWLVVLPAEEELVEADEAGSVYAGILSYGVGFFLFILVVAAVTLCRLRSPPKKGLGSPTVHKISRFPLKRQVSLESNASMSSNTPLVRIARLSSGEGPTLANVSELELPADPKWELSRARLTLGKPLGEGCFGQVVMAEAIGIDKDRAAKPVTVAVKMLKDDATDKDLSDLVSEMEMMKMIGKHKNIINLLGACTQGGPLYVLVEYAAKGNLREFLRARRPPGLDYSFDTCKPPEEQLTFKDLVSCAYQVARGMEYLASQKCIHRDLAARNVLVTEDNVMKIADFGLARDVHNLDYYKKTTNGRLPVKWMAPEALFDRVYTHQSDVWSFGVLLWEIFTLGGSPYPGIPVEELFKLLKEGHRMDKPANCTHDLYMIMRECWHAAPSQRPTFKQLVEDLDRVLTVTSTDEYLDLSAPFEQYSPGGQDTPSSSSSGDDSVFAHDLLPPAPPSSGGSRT

EPHB2 = EPHB2 (UniProt P29323); assay: as above
EPHB1 = EPHB1 (UniProt P54762); assay: as above
Hck = Hck (UniProt P08631); assay: as above
Chain of Hck (P08631 whole entry, looked up): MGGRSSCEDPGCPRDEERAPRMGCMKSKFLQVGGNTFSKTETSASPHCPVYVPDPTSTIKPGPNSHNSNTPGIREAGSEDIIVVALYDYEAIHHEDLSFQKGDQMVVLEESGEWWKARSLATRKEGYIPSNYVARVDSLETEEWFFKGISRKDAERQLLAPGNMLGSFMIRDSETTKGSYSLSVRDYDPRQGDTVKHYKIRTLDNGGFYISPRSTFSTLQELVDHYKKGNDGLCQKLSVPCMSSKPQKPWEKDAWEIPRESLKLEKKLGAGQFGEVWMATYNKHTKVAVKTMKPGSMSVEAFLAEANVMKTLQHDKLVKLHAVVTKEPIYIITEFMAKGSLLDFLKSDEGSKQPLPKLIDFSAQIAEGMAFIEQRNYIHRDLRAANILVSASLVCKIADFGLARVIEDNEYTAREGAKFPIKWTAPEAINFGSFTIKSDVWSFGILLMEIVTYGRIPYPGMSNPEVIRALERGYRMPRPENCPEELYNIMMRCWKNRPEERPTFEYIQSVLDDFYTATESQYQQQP

AncSZ = assay: as above
Fes = Fes (UniProt P07332); assay: as above
Chain of Fes (P07332 whole entry, looked up): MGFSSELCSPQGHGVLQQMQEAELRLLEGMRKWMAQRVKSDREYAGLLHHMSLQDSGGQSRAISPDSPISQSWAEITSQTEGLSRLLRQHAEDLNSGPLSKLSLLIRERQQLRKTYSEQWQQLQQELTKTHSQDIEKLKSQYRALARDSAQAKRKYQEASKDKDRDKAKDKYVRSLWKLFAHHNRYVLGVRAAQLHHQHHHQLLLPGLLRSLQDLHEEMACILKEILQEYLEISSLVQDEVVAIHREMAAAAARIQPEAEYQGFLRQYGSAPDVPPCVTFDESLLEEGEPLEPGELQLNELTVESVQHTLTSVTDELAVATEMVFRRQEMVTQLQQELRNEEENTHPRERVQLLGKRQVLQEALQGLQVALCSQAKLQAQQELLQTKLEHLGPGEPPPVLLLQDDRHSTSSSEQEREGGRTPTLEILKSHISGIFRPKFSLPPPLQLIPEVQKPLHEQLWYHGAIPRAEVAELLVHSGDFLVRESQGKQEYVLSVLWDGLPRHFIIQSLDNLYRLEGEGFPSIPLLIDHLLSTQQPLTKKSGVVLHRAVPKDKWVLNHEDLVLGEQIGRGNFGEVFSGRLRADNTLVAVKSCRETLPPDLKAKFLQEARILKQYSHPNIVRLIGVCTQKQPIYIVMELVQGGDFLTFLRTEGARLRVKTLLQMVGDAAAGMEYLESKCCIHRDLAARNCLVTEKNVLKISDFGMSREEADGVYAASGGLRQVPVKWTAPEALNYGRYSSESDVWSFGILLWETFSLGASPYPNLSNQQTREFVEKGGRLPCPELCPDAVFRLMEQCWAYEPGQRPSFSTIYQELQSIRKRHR

FGFR1 = FGFR1 (UniProt P11362); assay: as above
c-Src = assay: as above
c-Abl (mouse) = assay: as above
SHP2-C SH2 = assay: SH2 binding enrichment of the phosphorylated peptide, bacterial display (enrichment ratio); higher = better substrate or ligand; peptides without Tyr show the background
c-Src SH2 = assay: as above
Grb2 SH2 = Grb2 SH2 (UniProt P62993); assay: as above
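Wherever SH2 binding enrichment of the phosphorylated peptide, bacterial display is given: peptide library displayed on the E. coli surface as eCPX fusions, selected cells deep-sequenced, score is each peptide's frequency after selection divided by its frequency in the input.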
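Wherever phosphorylation enrichment, bacterial display is given: 11-residue human phosphosite peptides and single-mutation variants displayed on the E. coli surface, counted by deep sequencing, each peptide's frequency after selection divided by its frequency in the unselected input library; frequency after pTyr selection over input frequency; kinase dosed for 20-30% of maximal phosphorylation in three min.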

Chain of Jak2 (O60674 whole entry, looked up): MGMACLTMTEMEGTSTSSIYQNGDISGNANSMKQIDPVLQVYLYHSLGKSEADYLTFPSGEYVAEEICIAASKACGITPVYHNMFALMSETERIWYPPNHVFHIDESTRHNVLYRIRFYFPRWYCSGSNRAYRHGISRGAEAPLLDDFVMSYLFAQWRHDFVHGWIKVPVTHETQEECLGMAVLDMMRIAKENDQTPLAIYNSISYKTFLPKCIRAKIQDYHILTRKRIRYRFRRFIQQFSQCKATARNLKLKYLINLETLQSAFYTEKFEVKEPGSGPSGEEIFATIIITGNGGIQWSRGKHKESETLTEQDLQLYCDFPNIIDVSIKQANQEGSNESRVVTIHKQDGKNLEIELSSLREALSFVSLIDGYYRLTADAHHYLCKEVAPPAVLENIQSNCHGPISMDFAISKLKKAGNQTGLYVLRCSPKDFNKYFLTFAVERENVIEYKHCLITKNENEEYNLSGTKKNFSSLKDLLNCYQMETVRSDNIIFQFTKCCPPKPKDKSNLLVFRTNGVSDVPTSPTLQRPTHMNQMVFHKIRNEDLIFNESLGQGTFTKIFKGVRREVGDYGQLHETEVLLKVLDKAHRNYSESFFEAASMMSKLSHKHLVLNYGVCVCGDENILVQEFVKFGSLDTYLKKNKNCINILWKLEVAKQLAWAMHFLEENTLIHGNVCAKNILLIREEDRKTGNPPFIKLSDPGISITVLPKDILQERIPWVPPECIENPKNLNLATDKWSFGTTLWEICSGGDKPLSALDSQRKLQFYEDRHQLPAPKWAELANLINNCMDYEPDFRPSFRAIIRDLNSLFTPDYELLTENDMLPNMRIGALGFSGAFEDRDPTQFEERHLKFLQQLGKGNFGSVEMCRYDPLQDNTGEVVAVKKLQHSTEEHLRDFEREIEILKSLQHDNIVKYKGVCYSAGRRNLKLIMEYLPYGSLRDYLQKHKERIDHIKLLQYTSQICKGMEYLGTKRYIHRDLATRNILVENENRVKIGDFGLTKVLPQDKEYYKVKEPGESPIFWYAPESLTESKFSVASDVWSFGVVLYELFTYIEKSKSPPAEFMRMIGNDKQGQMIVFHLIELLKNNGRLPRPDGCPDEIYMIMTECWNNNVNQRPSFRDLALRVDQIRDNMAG
Chain of MERTK (Q12866 whole entry, looked up): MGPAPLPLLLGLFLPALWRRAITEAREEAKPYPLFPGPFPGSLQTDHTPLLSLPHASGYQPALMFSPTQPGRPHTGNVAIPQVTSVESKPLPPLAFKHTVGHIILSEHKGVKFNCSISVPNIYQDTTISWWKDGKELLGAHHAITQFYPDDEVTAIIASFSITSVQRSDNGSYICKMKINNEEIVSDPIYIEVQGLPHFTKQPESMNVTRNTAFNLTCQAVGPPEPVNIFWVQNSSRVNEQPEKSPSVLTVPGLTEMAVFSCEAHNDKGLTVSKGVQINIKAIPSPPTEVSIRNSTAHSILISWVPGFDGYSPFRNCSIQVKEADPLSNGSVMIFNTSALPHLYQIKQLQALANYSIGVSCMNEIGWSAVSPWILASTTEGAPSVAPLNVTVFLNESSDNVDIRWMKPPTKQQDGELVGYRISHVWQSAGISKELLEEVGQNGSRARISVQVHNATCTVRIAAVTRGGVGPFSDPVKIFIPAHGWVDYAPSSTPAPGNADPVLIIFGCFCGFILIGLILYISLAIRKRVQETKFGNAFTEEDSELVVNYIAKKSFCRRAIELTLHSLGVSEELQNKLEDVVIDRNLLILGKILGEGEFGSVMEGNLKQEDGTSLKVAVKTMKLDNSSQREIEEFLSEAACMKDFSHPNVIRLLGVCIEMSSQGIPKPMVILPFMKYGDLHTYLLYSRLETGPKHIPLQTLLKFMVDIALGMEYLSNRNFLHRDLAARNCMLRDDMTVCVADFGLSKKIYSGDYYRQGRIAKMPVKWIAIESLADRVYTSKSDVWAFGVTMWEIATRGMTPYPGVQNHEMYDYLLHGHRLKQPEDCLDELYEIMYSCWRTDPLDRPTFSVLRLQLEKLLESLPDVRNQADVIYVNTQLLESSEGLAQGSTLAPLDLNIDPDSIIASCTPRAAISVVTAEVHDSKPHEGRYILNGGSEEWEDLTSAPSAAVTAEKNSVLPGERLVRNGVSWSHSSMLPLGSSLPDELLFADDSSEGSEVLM

Sequence | SH2 binding enrichment (SHP2-C SH2) | SH2 binding enrichment (c-Src SH2) | SH2 binding enrichment (Grb2 SH2) | phosphorylation enrichment (MERTK) | phosphorylation enrichment (Fer (mouse)) | phosphorylation enrichment (Jak2) | phosphorylation enrichment (Fyn) | phosphorylation enrichment (FGFR3) | phosphorylation enrichment (EPHB2) | phosphorylation enrichment (EPHB1) | phosphorylation enrichment (Hck) | phosphorylation enrichment (AncSZ) | phosphorylation enrichment (Fes) | phosphorylation enrichment (FGFR1) | phosphorylation enrichment (c-Src) | phosphorylation enrichment (c-Abl (mouse))
TSFQMYDKGLV [IARS2_Y231_F227S_YF] | 0.538 | 0.315 | 0.547 | 0.438 | 0.877 | 1.03 | 0.649 | 0.82 | 0.746 | 0.596 | 0.934 | 0.925 | 0.846 | 0.651 | 0.475 | 0.473
EPVSDYINANI [PTPN11_Y304] | 0.911 | 0.466 | 0.819 | 0.325 | 0.412 | 0.799 | 0.447 | 0.673 | 0.495 | 0.433 | 0.541 | 0.997 | 0.847 | 0.454 | 0.38 | 0.603
GRSTCYWPRPR [GAGE12J_Y10_Y9C] | 0.831 | 0.507 | 1.03 | 0.567 | 0.602 | 0.885 | 0.543 | 0.531 | 0.512 | 0.502 | 0.557 | 0.762 | 0.686 | 0.538 | 0.649 | 0.697
NFATLYLKIFH [PDE6B_Y219_YF] | 1.1 | 0.781 | 1.26 | 0.457 | 0.502 | 0.953 | 0.412 | 0.734 | 0.599 | 0.604 | 0.497 | 1.21 | 1.27 | 0.669 | 0.434 | 0.83
ENRLDYGSAWA [AR_Y395_P392R] | 0.735 | 0.499 | 0.955 | 0.364 | 0.352 | 0.824 | 0.498 | 0.503 | 0.453 | 0.359 | 0.311 | 0.773 | 1.25 | 0.353 | 0.435 | 0.501
YVPSNYVAEDR [FRK_Y104_I100V] | 0.738 | 0.608 | 0.735 | 0.414 | 0.497 | 0.655 | 0.411 | 0.632 | 0.424 | 0.53 | 0.382 | 0.886 | 0.754 | 0.441 | 0.392 | 0.584
GVPLGYPIKAS [ELN_Y206_P211S] | 0.581 | 0.423 | 0.783 | 0.366 | 0.376 | 0.477 | 0.368 | 0.412 | 0.333 | 0.327 | 0.404 | 0.438 | 0.576 | 0.407 | 0.381 | 0.714
SSMIDYNLLEK [MYOC_Y479_P481L] | 0.692 | 0.723 | 0.822 | 0.434 | 0.417 | 0.968 | 0.482 | 0.698 | 0.563 | 0.455 | 0.518 | 0.855 | 0.954 | 0.526 | 0.409 | 0.685
AALKLYHVSDS [VIL1_Y256] | 1.18 | 0.434 | 0.613 | 0.847 | 0.427 | 0.635 | 0.561 | 0.672 | 0.558 | 0.493 | 0.623 | 0.815 | 0.766 | 0.511 | 0.417 | 0.537

Second part, led by results:

SH2 binding enrichment (SHP2-C SH2) | SH2 binding enrichment (c-Src SH2) | SH2 binding enrichment (Grb2 SH2) | Sequence | phosphorylation enrichment (MERTK) | phosphorylation enrichment (Fer (mouse)) | phosphorylation enrichment (Jak2) | phosphorylation enrichment (Fyn) | phosphorylation enrichment (FGFR3) | phosphorylation enrichment (EPHB2) | phosphorylation enrichment (EPHB1) | phosphorylation enrichment (Hck) | phosphorylation enrichment (AncSZ) | phosphorylation enrichment (Fes) | phosphorylation enrichment (FGFR1) | phosphorylation enrichment (c-Src) | phosphorylation enrichment (c-Abl (mouse))
1.01 | 1.06 | 1.46 | AKKVFYMIETR [SHH_Y253_V254M] | 0.386 | 0.561 | 1.02 | 0.439 | 0.881 | 0.622 | 0.606 | 0.444 | 1.15 | 1.24 | 0.448 | 0.472 | 0.673
0.613 | 0.264 | 0.51 | FFRKFYNKSED [RYR1_Y4864] | 0.424 | 0.353 | 0.622 | 0.458 | 0.562 | 0.57 | 0.386 | 0.41 | 0.794 | 0.718 | 0.484 | 0.388 | 0.421
0.561 | 0.331 | 0.757 | NSRFTYKLEVK [USH2A_Y3747_YF] | 0.467 | 0.599 | 1.25 | 0.38 | 0.761 | 0.545 | 0.649 | 0.475 | 1.22 | 1.39 | 0.432 | 0.382 | 0.853
0.787 | 0.414 | 0.85 | IVEFAYNDKAV [PUM3_Y259_I264V_YF] | 0.527 | 0.462 | 0.968 | 0.52 | 0.767 | 0.632 | 0.561 | 0.573 | 1.09 | 0.938 | 0.59 | 0.547 | 0.705
0.718 | 0.344 | 0.686 | PLDGEYFTLQI [TP53_Y327] | 0.663 | 1.19 | 4.17 | 4.48 | 7.34 | 1.36 | 1.32 | 2.55 | 4.14 | 1.47 | 9.82 | 3.81 | 1.57
1.2 | 0.642 | 0.881 | TDIVAYSGWVQ [SPTBN2_Y477_R480W] | 0.621 | 1.38 | 0.82 | 0.824 | 0.779 | 0.532 | 0.684 | 1.53 | 1.03 | 1.02 | 0.573 | 1.4 | 1.75
1.08 | 0.468 | 1.11 | FPHVISARLWR [SMAD4_Y95_Y95S] | 0.458 | 0.524 | 0.805 | 0.581 | 0.557 | 0.547 | 0.419 | 0.429 | 1 | 0.962 | 0.477 | 0.498 | 0.701
